Usually IC50 stands for the midpoint of a concentration-inhibition curve. By Kd is commonly meant the constant that tells how readily two partners part at equilibrium. Read a high Kd as a looser complex.

Consider 13 molecules from patent US20110059889A1 (SYNTONIX PHARMACEUTICALS, published 2011).

Like-named read-outs stand apart in the source and are kept apart here. Bridge positions count the residues as written; N and C are the ends. Square brackets hold non-standard residues; d marks the D form. Ends that are not written are not given here. NMeY = CN[C@@H](Cc1ccc(O)cc1)C(=O)O; NMeL = CN[C@@H](CC(C)C)C(=O)O; Pen = CC(C)(S)[C@H](N)C(=O)O; NMeA = CN[C@@H](C)C(=O)O; Sar = CNCC(=O)O

For assay [1], the target named is T1, soluble human FcRn (shFcRn) (human, UniProt P55899 24-297; P61769 21-119).
T1 construct: Biotinylated for the ELISA, amine-coupled to a CM5 chip for SPR; also called biotinylated shFcRn
Put plainly: IgG competition ELISA. For orientation: In an ELISA, binding on a coated surface is turned into a signal by an enzyme label.
Method: (§1) The wells were coated with 100 μl/well of 1 μg/ml biotinylated-shFcRn in Buffer A. The plate was sealed and incubated at 37° C. for 2 hours. Afterwards, the plate was washed with 200 μl/well of Buffer B (Buffer B: 100 mM MES pH 6, 150 mM NaCl, 0.5% BSA IgG-free (Jackson ImmunoResearch, West Grove, Pa.), 0.05% Tween-20). […] To allow for mixing, the plate was rocked for 2 minutes, sealed and incubated at 37° C. for 2 hours. […] The plate was covered, incubated for 30 minutes at room temperature and washed 4 times with 200 μl/well of ice-cold buffer B. SureBlue TMB substrate solution (100 μl/well, KPL, Gaithersburg, Md.) was added and the plate was allowed to incubate at room temperature until color developed, which took 5 to 10 minutes. Once color developed, 100 μl/well of TMB stop solution (KPL, Gaithersburg, Md.) was added and the absorbance was measured at 450 nm. The data was plotted as absorbance vs. peptide concentration to derive the inhibitory concentration 50% (IC₅₀) values.

In assay [2] the target is T1, soluble human FcRn (shFcRn). Put plainly: SPR pH 7.4; Peptide No. 146: Pen for Cys and NMeLeu for Leu (RF-Pen-TGHFGG-NMeLeu-YPCNGP).
Method: (§2) The following steps were performed to cross-link soluble human or cynomolgus FcRn to the dextran surface of a CM5 sensor chip (Biacore AB, Uppsala, Sweden) by an amine coupling reaction involving 1-ethyl-(3-dimethylaminopropyl)-carbodiimide hydrochloride (EDC) (Biacore AB, Uppsala, Sweden) and N-hydroxysuccinimide (NHS) (Biacore AB, Uppsala, Sweden) as recommended by Biacore (BIAapplications Handbook, version AB, section 4.2, Biacore AB, Uppsala, Sweden). […] Residual sites on the FcRn flow cell were blocked with 1 M ethanolamine hydrochloride pH 8.5 (Biacore AB, Uppsala, Sweden). A control flow cell was blocked with ethanolamine for reference subtraction. For analysis of the monomeric peptides, FcRn was coated to a final density of 4000-5000 response units (RU). For analysis of the peptide dimers, FcRn was coated to a density of 2000-2500 RU. All SPR measurements were performed using a BIACORE 3000 Instrument (Biacore AB Uppsala, Sweden). For measurements done at either pH 6 or pH 7.4, experiments were performed in 50 mM phosphate, 100 mM sodium chloride, 0.01% surfactant P20 (Biacore AB, Uppsala, Sweden).
(§3) Ten, 2-fold dilutions of the peptide were injected over the FcRn-CM5 chip at a rate of 20 μl/min for 2 min. The peptide was dissociated from the chip for 2.5 minutes with buffer. […] Sensorgrams were generated and analyzed using BiaEval software version 3.1 (Biacore AB, Uppsala, Sweden). […]
The target is the same in assay [3]. Put plainly: SPR pH 6.
Method: as §2
(§4) Ten, 2-fold dilutions of the peptide were injected over the FcRn-CM5 chip at a rate of 20 μl/min for 2 min. The peptide was dissociated from the chip for 2.5 minutes with buffer. Any remaining peptide was removed from the chip with a 30 second injection of HBS-P buffer (Biacore AB, Uppsala, Sweden) at a rate of 30 μl/min. Sensorgrams were generated and analyzed using BiaEval software version 3.1 (Biacore AB, Uppsala, Sweden). The equilibrium RU observed for each injection was plotted against concentration. The equilibrium KD values were derived by analysis of the plots using the steady state affinity model included in the BiaEval software.
For assay [4] the target is unchanged. Put plainly: SPR pH 7.4.
Method: as §2, §3
Assay [5] shares this target. In words: IgG competition ELISA. This is another data set of the same source.
Method: as §1
For assay [6] the target is unchanged. In words: SPR pH 6. The source holds these as a separate data set.
Method: as §2, §4
Assay [7] shares this target. Put plainly: IgG competition ELISA. The source holds these as a separate data set.
Method: as §1
The target is the same in assay [8]. Put plainly: SPR pH 6; Peptide No. 114: Pen, NMeTyr (QRF-Pen-TGHFGGL-NMeTyr-PCNGP).
Method: as §2, §3
Assay [9] has the same target. In words: IgG competition ELISA. The source holds these as a separate data set.
Method: as §1
The target is the same in assay [10]. Put plainly: IgG competition ELISA. The source holds these as a separate data set.
Method: as §1
The target is the same in assay [11]. Put plainly: SPR pH 6; Peptide No. 113: Pen, NMeLeu (QRF-Pen-TGHFGG-NMeLeu-YPCNGP).
Method: as §2, §3
Assay [12] shares this target. Put plainly: SPR pH 6. This is another data set of the same source.
Method: as §2, §3
The target is the same in assay [13]. In words: IgG competition ELISA. The source holds these as a separate data set.
Method: as §1
Assay [14] shares this target. Put plainly: IgG competition ELISA. The source holds these as a separate data set.
Method: as §1
The target is the same in assay [15]. In words: SPR pH 6. This is another data set of the same source.
Method: as §2, §3

T1 sequence (P55899 24-297 limits assumed, chain 1 of 2): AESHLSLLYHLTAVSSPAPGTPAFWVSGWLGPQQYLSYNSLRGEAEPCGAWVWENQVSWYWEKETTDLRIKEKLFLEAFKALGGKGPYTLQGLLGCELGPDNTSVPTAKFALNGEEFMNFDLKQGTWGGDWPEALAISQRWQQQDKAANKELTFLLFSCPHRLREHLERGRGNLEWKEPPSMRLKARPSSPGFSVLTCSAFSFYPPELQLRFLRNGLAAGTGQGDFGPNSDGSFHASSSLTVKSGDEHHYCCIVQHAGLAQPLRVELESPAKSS
T1 sequence (P61769 21-119 limits assumed, chain 2 of 2): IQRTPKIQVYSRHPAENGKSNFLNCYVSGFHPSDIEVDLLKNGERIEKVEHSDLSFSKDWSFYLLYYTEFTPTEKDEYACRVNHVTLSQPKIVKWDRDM

B1: Peptide No. 146 (peptide)
peptide: RF[Pen]TGHFGG[NMeL]YPCNGP-NH2
modifications: disulfide 3-13; N-terminus assumed
SMILES: CC(C)C[C@H]1C(=O)N[C@@H](Cc2ccc(O)cc2)C(=O)N2CCC[C@H]2C(=O)N[C@H](C(=O)N[C@@H](CC(N)=O)C(=O)NCC(=O)N2CCC[C@H]2C(N)=O)CSSC(C)(C)[C@H](NC(=O)[C@H](Cc2ccccc2)NC(=O)[C@@H](N)CCCNC(=N)N)C(=O)N[C@@H]([C@@H](C)O)C(=O)NCC(=O)N[C@@H](Cc2c[nH]cn2)C(=O)N[C@@H](Cc2ccccc2)C(=O)NCC(=O)NCC(=O)N1C
In the case of B1, in assay [1], the IC50 amounted to 2100 nM. For the same molecule, the Kd in assay [2] was found to be 280 nM; in [3], 59 nM.

B2: Peptide No. 147 (peptide)
peptide: RF[Pen]TGHFG[Sar]YPCNGP-NH2
modifications: disulfide 3-12; N-terminus assumed
SMILES: C[C@@H](O)[C@@H]1NC(=O)[C@@H](NC(=O)[C@H](Cc2ccccc2)NC(=O)[C@@H](N)CCCNC(=N)N)C(C)(C)SSC[C@@H](C(=O)N[C@@H](CC(N)=O)C(=O)NCC(=O)N2CCC[C@H]2C(N)=O)NC(=O)[C@@H]2CCCN2C(=O)[C@H](Cc2ccc(O)cc2)NC(=O)CN(C)C(=O)CNC(=O)[C@H](Cc2ccccc2)NC(=O)[C@H](Cc2c[nH]cn2)NC(=O)CNC1=O
notes: copied as printed (RF-Pen-TGHFG-Sar-YPCNGP); a Leu after Sar may be missing in the print
Molecule B2 yielded a 50% inhibitory concentration (IC50) in [1] of 1000 nM. In addition, the Kd in [4] was determined as 350 nM; in [3], 58 nM.

B3: Peptide No. 98 (peptide)
peptide: QRW[Pen]TGHFGGLYPCNGP-NH2
modifications: disulfide 4-14; N-terminus assumed
SMILES: CC(C)C[C@@H]1NC(=O)CNC(=O)CNC(=O)[C@H](Cc2ccccc2)NC(=O)[C@H](Cc2c[nH]cn2)NC(=O)CNC(=O)[C@H]([C@@H](C)O)NC(=O)[C@@H](NC(=O)[C@H](Cc2c[nH]c3ccccc23)NC(=O)[C@H](CCCNC(=N)N)NC(=O)[C@@H](N)CCC(N)=O)C(C)(C)SSC[C@@H](C(=O)N[C@@H](CC(N)=O)C(=O)NCC(=O)N2CCC[C@H]2C(N)=O)NC(=O)[C@@H]2CCCN2C(=O)[C@H](Cc2ccc(O)cc2)NC1=O
In the case of B3, in assay [5], the IC50 turned out to be 1500 nM.

B4: Peptide No. 195 (peptide)
peptide: QRF[Pen]GGHFGGLYPCNGP-NH2
modifications: disulfide 4-14; N-terminus assumed
SMILES: CC(C)C[C@@H]1NC(=O)CNC(=O)CNC(=O)[C@H](Cc2ccccc2)NC(=O)[C@H](Cc2c[nH]cn2)NC(=O)CNC(=O)CNC(=O)[C@@H](NC(=O)[C@H](Cc2ccccc2)NC(=O)[C@H](CCCNC(=N)N)NC(=O)[C@@H](N)CCC(N)=O)C(C)(C)SSC[C@@H](C(=O)N[C@@H](CC(N)=O)C(=O)NCC(=O)N2CCC[C@H]2C(N)=O)NC(=O)[C@@H]2CCCN2C(=O)[C@H](Cc2ccc(O)cc2)NC1=O
In [6], B4 returned a Kd of 760 nM.

B5: Peptide No. 213 (peptide)
peptide: QRF[Pen][NMeA]GHFGGLYPCNGP-NH2
modifications: disulfide 4-14; N-terminus assumed
SMILES: CC(C)C[C@@H]1NC(=O)CNC(=O)CNC(=O)[C@H](Cc2ccccc2)NC(=O)[C@H](Cc2c[nH]cn2)NC(=O)CNC(=O)[C@H](C)N(C)C(=O)[C@@H](NC(=O)[C@H](Cc2ccccc2)NC(=O)[C@H](CCCNC(=N)N)NC(=O)[C@@H](N)CCC(N)=O)C(C)(C)SSC[C@@H](C(=O)N[C@@H](CC(N)=O)C(=O)NCC(=O)N2CCC[C@H]2C(N)=O)NC(=O)[C@@H]2CCCN2C(=O)[C@H](Cc2ccc(O)cc2)NC1=O
As to B5, in [7], the IC50 was determined as 5500 nM. Besides, binding in assay [6] was put at a Kd of 1000 nM.

B6: Peptide No. 114 (peptide)
peptide: QRF[Pen]TGHFGGL[NMeY]PCNGP-NH2
modifications: disulfide 4-14; N-terminus assumed
SMILES: CC(C)C[C@@H]1NC(=O)CNC(=O)CNC(=O)[C@H](Cc2ccccc2)NC(=O)[C@H](Cc2c[nH]cn2)NC(=O)CNC(=O)[C@H]([C@@H](C)O)NC(=O)[C@@H](NC(=O)[C@H](Cc2ccccc2)NC(=O)[C@H](CCCNC(=N)N)NC(=O)[C@@H](N)CCC(N)=O)C(C)(C)SSC[C@@H](C(=O)N[C@@H](CC(N)=O)C(=O)NCC(=O)N2CCC[C@H]2C(N)=O)NC(=O)[C@@H]2CCCN2C(=O)[C@H](Cc2ccc(O)cc2)N(C)C1=O
B6 had a Kd in assay [8] of 92000 nM.

B7: Peptide No. 99 (peptide)
peptide: RF[Pen]TGHFGGLYPC-NH2
modifications: disulfide 3-13; N-terminus assumed
SMILES: CC(C)C[C@@H]1NC(=O)CNC(=O)CNC(=O)[C@H](Cc2ccccc2)NC(=O)[C@H](Cc2c[nH]cn2)NC(=O)CNC(=O)[C@H]([C@@H](C)O)NC(=O)[C@@H](NC(=O)[C@H](Cc2ccccc2)NC(=O)[C@@H](N)CCCNC(=N)N)C(C)(C)SSC[C@@H](C(N)=O)NC(=O)[C@@H]2CCCN2C(=O)[C@H](Cc2ccc(O)cc2)NC1=O
On to B7, for which the IC50 in assay [9] and in assay [10] was 2000 nM in each case.

B8: Peptide No. 113 (peptide)
peptide: QRF[Pen]TGHFGG[NMeL]YPCNGP-NH2
modifications: disulfide 4-14; N-terminus assumed
SMILES: CC(C)C[C@H]1C(=O)N[C@@H](Cc2ccc(O)cc2)C(=O)N2CCC[C@H]2C(=O)N[C@H](C(=O)N[C@@H](CC(N)=O)C(=O)NCC(=O)N2CCC[C@H]2C(N)=O)CSSC(C)(C)[C@H](NC(=O)[C@H](Cc2ccccc2)NC(=O)[C@H](CCCNC(=N)N)NC(=O)[C@@H](N)CCC(N)=O)C(=O)N[C@@H]([C@@H](C)O)C(=O)NCC(=O)N[C@@H](Cc2c[nH]cn2)C(=O)N[C@@H](Cc2ccccc2)C(=O)NCC(=O)NCC(=O)N1C
The molecule B8 returned an IC50 in assay [1] of 1600 nM. The molecule also showed a Kd in assay [11] of 86 nM. As to QRFCTGHFGGLXPCNGP (Pen 4; 3-pyridylAla 12; disulfide 4-14; C-terminal amide) [Peptide No. 67], in assay [12], the Kd came out at 34000 nM. The same molecule returned an IC50 in assay [13] of 92000 nM.

B9: Peptide No. 216 (peptide)
peptide: QRFCTGHFGXYPCNGP
modifications: Pen 4; X 10 = L,L-Friedinger's lactam (dipeptide mimetic in place of Gly-Leu); disulfide 4-13; C-terminal amide
Take B9: the IC50 in [14] was 19000 nM.

B10: Peptide No. 96 (peptide)
peptide: QR[dF][Pen]TGHFGGLYPCNGP-NH2
modifications: disulfide 4-14; N-terminus assumed
SMILES: CC(C)C[C@@H]1NC(=O)CNC(=O)CNC(=O)[C@H](Cc2ccccc2)NC(=O)[C@H](Cc2c[nH]cn2)NC(=O)CNC(=O)[C@H]([C@@H](C)O)NC(=O)[C@@H](NC(=O)[C@@H](Cc2ccccc2)NC(=O)[C@H](CCCNC(=N)N)NC(=O)[C@@H](N)CCC(N)=O)C(C)(C)SSC[C@@H](C(=O)N[C@@H](CC(N)=O)C(=O)NCC(=O)N2CCC[C@H]2C(N)=O)NC(=O)[C@@H]2CCCN2C(=O)[C@H](Cc2ccc(O)cc2)NC1=O
Take B10: in assay [5], the half-maximal inhibitory concentration (IC50) was 11400 nM.

B11: Peptide No. 194 (peptide)
peptide: QRFCTGHFGXYPCNGP
modifications: Pen 4; X 10 = D,L-Friedinger's lactam (dipeptide mimetic in place of Gly-Leu); disulfide 4-13; C-terminal amide
As for B11, in assay [14], the IC50 stood at 4900 nM.

B12: Peptide No. 142 (peptide)
peptide: RF[Pen]TGHFG[dP]LYPC-NH2
modifications: disulfide 3-13; N-terminus assumed
SMILES: CC(C)C[C@@H]1NC(=O)[C@H]2CCCN2C(=O)CNC(=O)[C@H](Cc2ccccc2)NC(=O)[C@H](Cc2c[nH]cn2)NC(=O)CNC(=O)[C@H]([C@@H](C)O)NC(=O)[C@@H](NC(=O)[C@H](Cc2ccccc2)NC(=O)[C@@H](N)CCCNC(=N)N)C(C)(C)SSC[C@@H](C(N)=O)NC(=O)[C@@H]2CCCN2C(=O)[C@H](Cc2ccc(O)cc2)NC1=O
In [15], B12 yielded a Kd of 140 nM. In addition, in assay [10], the IC50 was 1500 nM.
